Assay results: patent US20230279451A1, “METHODS FOR THE BIOCATALYTICAL MANUFACTURING OF DIHYDROCHALCONES” (SYMRISE AG, priority 2019, published 2023)
Numbering of substitutions follows the chain as printed. In names and notes the source's numbering stands. Entries after “also recorded” stand apart in the source; their conditions may differ.

B1: T40P/S173H: double mutant variant of the O-methyltransferase from Myxococcus xanthus (MxSafC_T40P_S173H) (protein)
chain: MIHHVELTQSVLQYIRDSSVRDNDILRDLREETSKLPLRPMQIPPEQGQLLSLLVRLIGARKTLEVGVFTGYSTLCAALALPADGRVIACDLSEEWVSIARRYWQRAGVADRIEVRLGDAHHSLEALVGSEHRGTFDLAFIDADKESYDFYYEHALRLVRPGGLIILDNTLWHGKVADPSVVGDPETDSLRRINAKLLTDERVDLSMLPIADGLTLARKR
modifications: MxSafC_T40P_S173H
B2: S173H: variant of the O-methyltransferase from Myxococcus xanthus (MxSafC_S173H) (protein)
chain: B1 chain with P40T
modifications: MxSafC_S173H
B3: T40P: variant of the O-methyltransferase from Myxococcus xanthus (MxSafC_T40P) (protein)
chain: B1 chain with H173S
modifications: MxSafC_T40P
B4: L92Q: variant of the O-methyltransferase from Myxococcus xanthus (MxSafC_L92Q) (protein)
chain: B1 chain with P40T, L92Q, H173S
modifications: MxSafC_L92Q
B5: D119P: variant of the O-methyltransferase from Myxococcus xanthus (MxSafC_D119P) (protein)
chain: B1 chain with P40T, D119P, H173S
modifications: MxSafC_D119P
B6: W96A: variant of the O-methyltransferase from Myxococcus xanthus (MxSafC_W96A) (protein)
chain: B1 chain with P40T, W96A, H173S
modifications: MxSafC_W96A
B7: M5: quintuple mutant of MxSafC combining mutation T40P/L92Q/W96A/D119P/S173H (protein)
chain: B1 chain with L92Q, W96A, D119P
modifications: MxSafC_M5
notes: quintuple mutant of MxSafC combining mutation T40P/L92Q/W96A/D119P/S173H

assay: Biotransformation of 3-hydroxyphloretin with lysed E. coli BL21(DE3) cells expressing MxSafC wild-type or variants (LC-MS); type: biochemical; conditions: 3 mM 3-hydroxyphloretin, 3 mM S-adenosylmethionine, 25° C., 24 hours; FIG. 10 light grey bars
From the text: FIG. 10: Biotransformation of 3-Hydroxyphloretin with lysed E. coli BL21 (DE 3) cells, which express MxSafC (wild-type (wt), cf. SEQ ID NOs: 13, 14, 55), or specific variants or mutants thereof (cf. SEQ ID NOs: 56 to 76). Hesperetin dihydrochalcone as well as homoeriodictyol (HED) dihydrochalcone are the products. Conversion of 3-hyroxyphloretin (30HP) shown in light grey, product specificity towards hesperetin dihydrochalcone is shown in dark grey.
MxSafC mutant variants correspond to SEQ ID NOs: 56 to SEQ ID NO: 76. These were synthesized (BioCat GmbH, Heidelberg, Germany) and cloned into pET28a between NcoI and HindIII restriction sites, respectively. SEQ ID NOs: 13, 14 and 55 show the respective wild-type sequence. By artificial design, certain mutants were created to optimize the activity and/or specificity of the MxSafC enzyme. Interesting single, double and quintuple mutants could be identified, as shown in detail in the results in FIG. 10.
First, various positions within MxSafC (SEQ ID NO: 14) were randomly mutated. All mutants were characterized and checked for activity. In a second round, targeted mutations and combinations thereof were tested in an iterative manner to identify suitable mutants for commercial purposes that have a good activity and conversion rate, but at the same time a good or even improved product specificity. Indeed, certain variants could be identified that fulfill these needs.
30 E. coli BL21(DE3) cells, each containing a plasmid from Table 1, were used to inoculate 5 ml of LB medium (Carl Roth GmbH, Karlsruhe, Germany) with the corresponding antibiotic. After incubation for 16 h (37° C., 200 rpm), 20 ml TB medium (Carl Roth GmbH, Karlsruhe, Germany) were inoculated with an OD600 of 0.1 from these cultures. These main cultures were incubated (37° C., 200 rpm) until an OD600 of 0.5-0.8 was achieved. After addition of 1 mM isopropyl-β-D-thiogalactopyranoside, the cultures were incubated for a further 16 h (22° C., 200 rpm). The main culture was centrifuged (10 min, 10,000 rpm), the pelleted cells were decomposed using the B-PER protein extraction reagent (Thermo Fisher Scientific, Bonn, Germany) according to the manufacturers specifications. After additional centrifugation (10 min, 14,000 rpm) the supernatant was mixed with 3 mM 3-hydroxyphloretin, 3 mM S-adenosylmethionine, 0.1 mM MgCl2. The reaction mixture was incubated at 25° C. for 24 hours. After stopping the assay with 20% trichloroacetic acid ([…] final concentration) the sample was centrifuged and the supernatant used for LC-MS analysis.

Question: Which “enzyme activity (conversion of 3-hydroxyphloretin)” value (from here on “enzyme activity”) does the source give for B1 here?
Answer: a technically reasonable activity

Question: With B2 as the molecule, how does the “enzyme activity” value read?
Answer: particularly favorable

Question: With B3 as the molecule, how does the “enzyme activity” value read?
Answer: particularly favorable

same assay, conditions: 3 mM 3-hydroxyphloretin, 3 mM S-adenosylmethionine, 25° C., 24 hours; compared with wild-type MxSafC; FIG. 10 dark grey

Question: For B4, which “product specificity towards hesperetin dihydrochalcone” value is on record?
Answer: nearly balanced

Question: With B5 as the molecule, how does the “product specificity towards hesperetin dihydrochalcone” value read?
Answer: nearly balanced

Question: For B1, which “product specificity towards hesperetin dihydrochalcone” value is on record?
Answer: performed better than the wild-type; also recorded: a good specificity

Question: With B2 as the molecule, how does the “product specificity towards hesperetin dihydrochalcone” value read?
Answer: performed better than the wild-type

Question: With B3 as the molecule, how does the “product specificity towards hesperetin dihydrochalcone” value read?
Answer: performed better than the wild-type

Question: With B6 as the molecule, how does the “product specificity towards hesperetin dihydrochalcone” value read?
Answer: performed better than the wild-type

Question: For B7, which “product specificity towards hesperetin dihydrochalcone” value is on record?
Answer: performed better than the wild-type
